Laboratory results reported in article PMC4900678.

Test system: Rrp5_C8;Rok1 (Saccharomyces cerevisiae;Saccharomyces cerevisiae)
Experiment: glycerol gradient sedimentation
Details: EMSA: 200 mM KCl, 10 mM MgCl2, 40 mM HEPES/KOH pH 7.5, 10 mM Mg-AMPPCP or 1 mM Mg-ADP, 12 min 25 C, native gel 4 C. 40S binding: 200 mM KOAc, 20 mM HEPES/KOH …

## mature 40S ribosomal subunit (18S rRNA)
400 uM ADP, 98% of Rrp5 free
  binding signal: 2 % Rrp5 bound
4 mM AMPPCP
  binding signal: 15 % Rrp5 bound
